Test results: paper PMC10842004 (Journal of molecular biology, 2023)

Target: ubiquitin (UniProt P0CG48 1-76)
Test: NMR titration

binding result: binds
B1: RAD23A UBA1 domain (aa 160–205) (domain or fragment)
chain: not shown
